Data on one substance can be found in article PMC10546719.

The target in assay [1] is syndecan-1 (human (endogenous in Caco-2)) (UniProt P18827).
Assay [2] has the same target. This is another data set of the same source.

Sequence of UniProt P18827 (P18827 23-310): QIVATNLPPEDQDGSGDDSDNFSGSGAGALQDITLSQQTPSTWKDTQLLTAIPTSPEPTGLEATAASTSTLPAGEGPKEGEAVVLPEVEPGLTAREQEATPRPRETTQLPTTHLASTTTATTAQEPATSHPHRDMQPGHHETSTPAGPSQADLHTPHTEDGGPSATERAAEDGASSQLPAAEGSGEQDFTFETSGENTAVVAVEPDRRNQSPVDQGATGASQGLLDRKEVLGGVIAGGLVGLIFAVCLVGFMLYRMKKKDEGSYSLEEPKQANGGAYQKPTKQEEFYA

Substance “recombinant Trichinella spiralis C-type lectin with GST tag (GST-rTsCTL) (natural protein)” had an inhibition of the rTsCTL (10 µg/mL) promotion of larval invasion of Caco-2 cells by 2.5-20 µM Stattic in assay [1] of 49.3%. The reduction of the rTsCTL (10 µg/mL) promotion of larval invasion of Caco-2 cells by 2.5-20 mM β-xyloside in assay [2] worked out at 46.8%.
